Assay results as given in patent publication US20210156867A1 (YEDA RESEARCH AND DEVELOPMENT, published 2021).

Legend:
[1] = biological target: T1, recombinant human B-cell lymphoma protein 2 alpha His-Tag (Bcl-2) (human, UniProt P10415 1-211, limits assumed); assay: fluorescence displacement assay: emission of the His-Bcl-2-compound 5 sensor complex (200 nM) after adding 800 nM protein
T1 construct: In the assay it was in complex with the Ni-NTA sensor compound 5; also called His-Bcl-2; not shown: His-tag
T1 sequence (P10415 1-211 limits assumed): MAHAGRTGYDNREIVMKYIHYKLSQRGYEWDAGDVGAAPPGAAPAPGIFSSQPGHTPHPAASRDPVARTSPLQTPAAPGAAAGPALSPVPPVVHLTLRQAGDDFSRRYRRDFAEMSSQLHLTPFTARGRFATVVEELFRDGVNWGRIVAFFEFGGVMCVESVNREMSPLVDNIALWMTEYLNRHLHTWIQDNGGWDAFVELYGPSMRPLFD

[2] = biological target: T2, mouse recombinant His-calmodulin, calcium-bound (mouse, UniProt P0DP26 1-149); assay: SPR, His-CaM immobilised on CM5 chip, analyte pre-incubated with 0.3 mM CaCl2
T2 construct: also called His-CaM(Ca^2+); His-CaM(Ca^+2)

[3] = biological target: T1, recombinant human B-cell lymphoma …; assay: fluorescence displacement assay: emission of the His-Bcl-2-compound 5 sensor complex (200 nM) after adding 800 nM peptide
Method: Fluorescence measurements were performed in triplicate. The emission intensities before the addition of each protein were normalized to 100*14 (FIG. 27b).

Row | Binder | binding result [1] | Kd [2] | binding result [3]
1 | GST-P1 (enzyme, human, UniProt P09211 1-210, looked up, recombinant; also called human recombinant GST-P1-1) GST-P1 subunit: MPPYTVVYFPVRGRCAALRMLLADQGQSWKEEVVTVETWQEGSLKASCLYGQLPKFQDGDLTLYQSNTILRHLGRTLGLYGKDQQEAALVDMVNDGVEDLRCKYISLIYTNYEAGKDDYVKALPGQLKPFETLLSQNQGGKTFIVGDQISFADYNLLDLLLIHEVLAPGCLDAFPLLSAYVGRLSARPKLKAFLASPEYVNLPINGNGKQ | no binding (tested: 800 nM) |  | 
2 | KRRWKKNFIAVSAANRFKKISSSGAL (peptide, UniProt P07313 578-603, looked up, check before use) |  | 8.8 nM | no binding (tested: 800 nM)
